Source: patent publication US20250152746A1, “BASE EDITING OF ANGPTL3 AND METHODS OF USING SAME FOR TREATMENT OF DISEASE” (Verve Therapeutics, Inc., priority 2020, published 2025)

Columns and labels:
ANGPTL3 gene [1] = assay: ANGPTL3 gRNA/SpCas9 editing in primary cynomolgus hepatocytes (Table 3); format: cell-based, cynomolgus monkey
Description: (§1) In set of experiments, PCSK9 gRNAs were co-transfected with an equivalent amount (1:1 ratio by weight) of in vitro transcribed commercially available SpCas9 mRNA MS002 purchased from TriLink Biotechnologies into primary human hepatocytes at 2500, 500, or 100 ng/RNA/mL and processed as described in detailed methods. Extracted genomic DNA was analyzed for gene editing at the target site with next-generation sequencing of PCR amplicons generated around the target sites. Samples were prepared using the Nextera XT DNA library preparation kit (Illumina) according to the manufacturer's protocol. Briefly, two rounds of PCR were performed first to amplify the region of interest and second to add DNA sequences required for next generation sequencing and sample identification to the initial product. The final amplicon was sequenced on the Illumina MiSeq instrument according to the manufacturer's protocol. A wide range of editing activities (Table 2) were observed. In a second set of experiments, ANGPTL3 gRNAs were co-transfected with an equivalent amount of in vitro transcribed SpCas9 mRNA (1:1 ratio by weight) into primary human hepatocytes and processed and analyzed similarly (Table 3).
(§2) Plating, culturing, and transfection of primary hepatocytes. Primary human liver hepatocytes (PHH) and primary cynomolgus liver hepatocytes (PCH) from BioIVT were cultured per the manufacturer's protocol. Briefly, primary human hepatocytes and primary cyno hepatocytes were obtained as frozen aliquots from BioIVT. Four lots of primary human hepatocytes, each derived from a de-identified individual donor, were used for the experiments: STL (main donor) was used for all experiments, including screening experiments and off-target experiments; HLY, JLP, and TLY were used for off-target experiments. The HFG lot of primary cyno hepatocytes were used for experiments. Following the manufacturer's instructions, cells were thawed and rinsed prior to plating in 24-well plates that had been coated with bovine collagen overnight, with a density of approximate 350,000 cells/well in INVITROGRO hepatocyte medium supplemented with TORPEDO antibiotic mix (BioIVT). The cells were thawed and resuspended in hepatocyte thawing medium followed by centrifugation at 100 g for 10 min at 4° C. The supernatant was discarded, and the pelleted cells resuspended in hepatocyte plating medium. Each vial contains approximately 5 million cells that were used for plating one 24-well plate. Plated cells were allowed to settle and adhere for 4-6 h in a tissue culture incubator at 37° C. under 5% CO2 atmosphere. After incubation, cells were checked for monolayer formation. The incubating media were then replaced with fresh hepatocyte maintenance media (complete INVITROGRO medium obtained from BioIVT, the cell line provider). The cells thus became ready for transfection. Each of the gRNAs were co-transfected with an equivalent amount of in vitro transcribed ABE8.8 mRNA (1:1 ratio by molecular weight) into primary human hepatocytes via MessengerMax reagent (Lipofectamine), using various dilutions to assess for editing activity at different concentrations of test article. MessengerMAX from Thermo Fisher is used for transfection. Solution A: desired amount of guide RNA is mixed with 1:1 wt ratio of mRNA in OptiMEM. Solution B: MessengerMAX in OptiMEM. After mixing solutions A and B, the mixture was incubated at room temperature for 20 min. 60 μL of the incubated solution was added dropwise to each cell wells. For protospacer sequences that were a perfect match to the corresponding cynomolgous monkey PCSK9 or ANGPTL3 gene sequence, each gRNA was also co-transfected with an equivalent amount of ABE8.8 mRNA (1:1 ratio by molecular weight) into primary cynomolgous hepatocytes, and followed the same transfection protocol. The cells were then allowed to remain at 37° C. for 3 days. […]

ANGPTL3 gene [2] = assay: ANGPTL3 gRNA/SpCas9 editing in primary human hepatocytes (Table 3); format: cell-based
Description: as §1, §2

Molecule	Cyno Primary Hepatocyte Editing % 100 ng/mL (ANGPTL3 gene [1]) [%]	Cyno Primary Hepatocyte Editing % 500 ng/ml (ANGPTL3 gene [1]) [%]	Human Primary Hepatocyte Editing % 500 ng/mL (ANGPTL3 gene [2]) [%]	Human Primary Hepatocyte Editing % 100 ng/ml (ANGPTL3 gene [2]) [%]
GA131: ANGPTL3 gRNA; protospacer GAAGATAGAGAAATTTCTGT (SEQ ID NO: 129) (nucleic acid, 2'-O-methyl at 1, 2, other sugars and backbone not given here; further chemistry not fully specified) guide: GAAGATAGAGAAATTTCTGTGTTTTAGAGCTAGAAATAGCAAGTTAAAATAAGGCTAGTCCGTTATCAACTTGAAAAAGTGGCACCGAGTCGGTGCTTTT	10.10	27.57	18.64	–
GA125: ANGPTL3 gRNA; protospacer TGATGGTAAGACACTTTGGT (SEQ ID NO: 123) (nucleic acid, 2'-O-methyl at 1, 2, other sugars, backbone and T or U not given here; further chemistry not fully specified) guide: UGATGGTAAGACACTTTGGTGTTTTAGAGCTAGAAATAGCAAGTTAAAATAAGGCTAGTCCGTTATCAACTTGAAAAAGTGGCACCGAGTCGGTGCTTTT	12.91	19.72	16.27	5.04
GA126: ANGPTL3 gRNA; protospacer GGAGTAGTTCTTGGTGCTCT (SEQ ID NO: 124) (nucleic acid, 2'-O-methyl at 1, 2, other sugars and backbone not given here; further chemistry not fully specified) guide: GGAGTAGTTCTTGGTGCTCTGTTTTAGAGCTAGAAATAGCAAGTTAAAATAAGGCTAGTCCGTTATCAACTTGAAAAAGTGGCACCGAGTCGGTGCTTTT	8.29	17.57	15.21	6.73
GA141: ANGPTL3 gRNA; protospacer TTGAGAGTTGCTGGGTCTGA (SEQ ID NO: 139) (nucleic acid, 2'-O-methyl at 1, 2, other sugars, backbone and T or U not given here; further chemistry not fully specified) guide: UUGAGAGTTGCTGGGTCTGAGTTTTAGAGCTAGAAATAGCAAGTTAAAATAAGGCTAGTCCGTTATCAACTTGAAAAAGTGGCACCGAGTCGGTGCTTTT	5.49	10.32	14.87	5.80
GA113: ANGPTL3 gRNA; protospacer ATTCTGGAGGAAATAACTAG (SEQ ID NO: 111) (nucleic acid, 2'-O-methyl at 1, 2, other sugars, backbone and T or U not given here; further chemistry not fully specified) guide: AUTCTGGAGGAAATAACTAGGTTTTAGAGCTAGAAATAGCAAGTTAAAATAAGGCTAGTCCGTTATCAACTTGAAAAAGTGGCACCGAGTCGGTGCTTTT	12.07	26.67	19.97	6.00
GA128: ANGPTL3 gRNA; protospacer TGAAGAAAGGGAGTAGTTCT (SEQ ID NO: 126) (nucleic acid, 2'-O-methyl at 1, 2, other sugars, backbone and T or U not given here; further chemistry not fully specified) guide: UGAAGAAAGGGAGTAGTTCTGTTTTAGAGCTAGAAATAGCAAGTTAAAATAAGGCTAGTCCGTTATCAACTTGAAAAAGTGGCACCGAGTCGGTGCTTTT	0.19	32.55	25.39	10.29
GA130: ANGPTL3 gRNA; protospacer ATGATGGTAAGACACTTTGG (SEQ ID NO: 128) (nucleic acid, 2'-O-methyl at 1, 2, other sugars, backbone and T or U not given here; further chemistry not fully specified) guide: AUGATGGTAAGACACTTTGGGTTTTAGAGCTAGAAATAGCAAGTTAAAATAAGGCTAGTCCGTTATCAACTTGAAAAAGTGGCACCGAGTCGGTGCTTTT	14.60	25.90	17.09	7.51
GA116: ANGPTL3 gRNA; protospacer GTAGAATTTTTTCTTCTAGG (SEQ ID NO: 114) (nucleic acid, 2'-O-methyl at 1, 2, other sugars, backbone and T or U not given here; further chemistry not fully specified) guide: GUAGAATTTTTTCTTCTAGGGTTTTAGAGCTAGAAATAGCAAGTTAAAATAAGGCTAGTCCGTTATCAACTTGAAAAAGTGGCACCGAGTCGGTGCTTTT	10.84	19.83	16.33	3.78
GA127: ANGPTL3 gRNA; protospacer AACATGATGGTAAGACACTT (SEQ ID NO: 125) (nucleic acid, 2'-O-methyl at 1, 2, other sugars and backbone not given here; further chemistry not fully specified) guide: AACATGATGGTAAGACACTTGTTTTAGAGCTAGAAATAGCAAGTTAAAATAAGGCTAGTCCGTTATCAACTTGAAAAAGTGGCACCGAGTCGGTGCTTTT	19.89	33.67	18.74	5.77
GA122: ANGPTL3 gRNA; protospacer CTTTTATTTGACTATGCTGT (SEQ ID NO: 120) (nucleic acid, 2'-O-methyl at 1, 2, other sugars, backbone and T or U not given here; further chemistry not fully specified) guide: CUTTTATTTGACTATGCTGTGTTTTAGAGCTAGAAATAGCAAGTTAAAATAAGGCTAGTCCGTTATCAACTTGAAAAAGTGGCACCGAGTCGGTGCTTTT	7.28	16.76	13.82	4.45
GA132: ANGPTL3 gRNA; protospacer GGAAGATAGAGAAATTTCTG (SEQ ID NO: 130) (nucleic acid, 2'-O-methyl at 1, 2, other sugars and backbone not given here; further chemistry not fully specified) guide: GGAAGATAGAGAAATTTCTGGTTTTAGAGCTAGAAATAGCAAGTTAAAATAAGGCTAGTCCGTTATCAACTTGAAAAAGTGGCACCGAGTCGGTGCTTTT	15	26	28.39	15.25
GA137: ANGPTL3 gRNA; protospacer TATCAGGTAAAACCTGTCTA (SEQ ID NO: 135) (nucleic acid, 2'-O-methyl at 1, 2, other sugars, backbone and T or U not given here; further chemistry not fully specified) guide: UATCAGGTAAAACCTGTCTAGTTTTAGAGCTAGAAATAGCAAGTTAAAATAAGGCTAGTCCGTTATCAACTTGAAAAAGTGGCACCGAGTCGGTGCTTTT	28.01	30.57	29.70	11.44
GA117: ANGPTL3 gRNA; protospacer ACTACAAGTCAAAAATGAAG (SEQ ID NO: 115) (nucleic acid, 2'-O-methyl at 1, 2, other sugars and backbone not given here; further chemistry not fully specified) guide: ACTACAAGTCAAAAATGAAGGTTTTAGAGCTAGAAATAGCAAGTTAAAATAAGGCTAGTCCGTTATCAACTTGAAAAAGTGGCACCGAGTCGGTGCTTTT	10.01	26.11	16.55	7.08
